Residue numbers refer to the chain shown, from its start.
B1: APE15277 (antibody, V domains shown)
VH: QVQLVQSGAEVKKPGASVKVSCKASGYTFISYWIQWVRQAPGQGLEWMGEILPGSGSINHNEKFQGRVTMTRDTSTSTVYMELSSLRSEDTAVYYCTRHYGSFDYWGQGTTVTVSS
VL: DIQMTQSPSSLSASVGDRVTITCKASQNVGTDVAWYQQKPGKAPKSLIYSASYRYSGVPSRFSGSGSGTDFTLTISSLQPEDFATYFCHQYESYPFTFGQGTKLEIKR
notes: M6-p1625 series
B2: APE15278 (antibody, V domains shown)
VH: B1 VH with I30S, S31R, Q35E, L52S, S55V, G56D, S57T
VL: B1 VL
notes: M6-p1625 series
B3: APE15279 (antibody, V domains shown)
VH: B1 VH with I30T, Y32Q, Q35E
VL: B1 VL
notes: M6-p1625 series
B4: APE15280 (antibody, V domains shown)
VH: B1 VH with I30S, S31R, Y32Q, Q35E
VL: B1 VL
notes: M6-p1625 series
B5: APE15283 (antibody, V domains shown)
VH: B1 VH with T28K, I30S
VL: B1 VL
notes: M6-p1625 series
B6: APE15284 (antibody, V domains shown)
VH: B1 VH with I30G, S31R
VL: B1 VL
notes: M6-p1625 series
B7: APE15285 (antibody, V domains shown)
VH: B1 VH with T28I, I30A, Y32N
VL: B1 VL
notes: M6-p1625 series
B8: APE15286 (antibody, V domains shown)
VH: B1 VH with T28L, I30S, S31R
VL: B1 VL
notes: M6-p1625 series
B9: APE15287 (antibody, V domains shown)
VH: B1 VH with T28K, I30S, S31R
VL: B1 VL
notes: M6-p1625 series
B10: APE15288 (antibody, V domains shown)
VH: B1 VH with T28S, I30R, S31R, Y32H
VL: B1 VL
notes: M6-p1625 series
B11: APE15290 (antibody, V domains shown)
VH: B1 VH with T28P, I30T
VL: B1 VL
notes: M6-p1625 series
B12: APE15291 (antibody, V domains shown)
VH: B1 VH with I30A, S31R, Y32H, Q35G
VL: B1 VL
notes: M6-p1625 series
B13: APE15292 (antibody, V domains shown)
VH: B1 VH with S31T, Q35E
VL: B1 VL
notes: M6-p1625 series
B14: APE15293 (antibody, V domains shown)
VH: B1 VH with I30S, Y32H
VL: B1 VL
notes: M6-p1625 series
B15: APE15296 (antibody, V domains shown)
VH: B1 VH with T28R, I30S, S31T, Y32Q, Q35E
VL: B1 VL
notes: M6-p1625 series
B16: APE15297 (antibody, V domains shown)
VH: B1 VH with T28S, S31I, Y32H
VL: B1 VL
notes: M6-p1625 series
B17: APE15298 (antibody, V domains shown)
VH: B1 VH with T28I, I30S, S31R, G56V
VL: B1 VL
notes: M6-p1625 series
B18: APE15299 (antibody, V domains shown)
VH: B1 VH with T28S, I30S, S31K, Y32H
VL: B1 VL
notes: M6-p1625 series
B19: APE15300 (antibody, V domains shown)
VH: B1 VH with T28A, I30V, S31D, Y32N
VL: B1 VL
notes: M6-p1625 series
B20: APE15368 (antibody, V domains shown)
VH: B1 VH with A24V, I30T, S31R, Y32F
VL: B1 VL
notes: M6-p1625 series
B21: APE15369 (antibody, V domains shown)
VH: B1 VH with V18I, I30T, S31R, Y32F
VL: B1 VL
notes: M6-p1625 series
B22: APE15370 (antibody, V domains shown)
VH: B1 VH with A24V, I30S, S31R
VL: B1 VL
notes: M6-p1625 series
B23: APE15371 (antibody, V domains shown)
VH: B1 VH with V18I, I30S, S31R
VL: B1 VL
notes: M6-p1625 series
B24: APE14970 (antibody, V domains shown)
VH: EVQLVQSGAEVKKPGATVKISCKVSGFNFKDSLMHWVQQAPGKGLEWMGWIDSENGETEYAPGFQDRVTITADTSTDTAYMELSSLRSEDTAVYYCARGGPWFLSYWGQGTTVTVSS
VL: EIVMTQSPATLSVSPGERATLSCRASQIISNNLHWYQQKPGQAPRLLIIYGLQSISGIPARFSGSRSGTEFTLTISSLQSEDFAVYFCQQSNNWPWTFGQGTKLEIKR
notes: M10-1275 series
B25: APE14969 (antibody, V domains shown)
VH: B24 VH
VL: B24 VL with R66G
notes: M10-1275 series
B26: APE14971 (antibody, V domains shown)
VH: B24 VH
VL: B24 VL with I49Y, R66G, F87Y
notes: M10-1275 series
B27: APE15031 (antibody, V domains shown)
VH: B24 VH with N55H
VL: B24 VL
notes: M10-1275 series
B28: APE15032 (antibody, V domains shown)
VH: B24 VH with N55A
VL: B24 VL
notes: M10-1275 series
B29: APE15033 (antibody, V domains shown)
VH: B24 VH with N55Q
VL: B24 VL
notes: M10-1275 series
B30: APE15034 (antibody, V domains shown)
VH: B24 VH with N55T
VL: B24 VL
notes: M10-1275 series

What was measured:
[1] = molecular target: T1, recombinant human IL-2Rβ (extracellular domain, Ala1-Thr215) (human, UniProt P14784 27-240); assay: SPR, antibody captured on Protein A chip
T1 construct: extracellular domain; Analyte in SPR; Ala1-Thr215 is counted on the mature protein; also called human LL-2Rβ; Human IL-2RB
T1 sequence (looked up): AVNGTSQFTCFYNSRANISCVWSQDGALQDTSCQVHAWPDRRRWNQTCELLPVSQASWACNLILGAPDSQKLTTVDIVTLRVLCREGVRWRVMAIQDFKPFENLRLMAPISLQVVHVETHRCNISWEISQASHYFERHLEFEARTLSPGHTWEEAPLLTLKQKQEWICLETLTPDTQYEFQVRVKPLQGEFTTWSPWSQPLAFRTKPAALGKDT
Experimental: (§1) Surface plasmon resonance (SPR) was used to determine the binding affinities. The M6-1625 and M10-1275 antibodies were captured onto a Cytiva Protein A Chip for 60 seconds at 0.5 μg/mL for 60 seconds. The antibodies were exposed to recombinant human LL-2Rβ or cynomolgus LL-2Rβ (corresponding to residues Ala1-Thr215 of the extracellular domains excluding the signal peptide) at typical concentrations ranging from 0.4 nM to 11 nM with typical 300 second associations and 1200 second dissociations using a BiacoreS200 instrument. Sensorgrams were fit globally using a 1:1 binding model in the Biacore T200 Evaluation Software to calculate on- and off-rates and KD values.

[2] = molecular target: T2, recombinant cynomolgus IL-2Rβ (extracellular domain, Ala1-Thr215) (cynomolgus, UniProt Q38J85 27-240); assay: SPR, antibody captured on Protein A chip
T2 construct: extracellular domain; Analyte in SPR; also called cynomolgus LL-2Rβ; Cyno IL-2RB
T2 sequence (looked up): T1 sequence (looked up) with Q7R, A66T, T74A, L83M, V92M, E127K, L158M
Experimental: as §1

Binder | Kd [1] [nM] | Kd [2] [nM]
B1 | 0.229 | 0.244
B2 | 0.334 | 0.488
B3 | 0.522 | 0.533
B4 | 0.161 | 0.202
B5 | 0.312 | 0.318
B6 | 0.0566 | 0.0705
B7 | 0.31 | 0.327
B8 | 0.0873 | 0.104
B9 | 0.169 | 0.186
B10 | 0.172 | 0.199
B11 | 0.261 | 0.305
B12 | 1.98 | 2.68
B13 | 0.376 | 0.437
B14 | 0.351 | 0.359
B15 | 0.851 | 0.825
B16 | 0.157 | 0.153
B17 | 0.0981 | 0.132
B18 | 0.348 | 0.39
B19 | 1.41 | 1.16
B20 | 0.0867 | 0.0783
B21 | 0.0674 | 0.0634
B22 | 0.11 | 0.0982
B23 | 0.0917 | 0.0821
B24 | 0.074 | 0.014
B25 | 0.187 | 0.018
B26 | 0.278 | 0.026
B27 | 0.108 | 0.0189
B28 | 0.0738 | 0.0124
B29 | 0.106 | 0.0128
B30 | 0.19 | 0.0222

Source: patent publication US20260265385A1 (ANAPTYSBIO, published 2026)
